The record followed here is US20140128280A1 (published 2014).

For assay [1], the target named is T1, Gal80 (UniProt P04387 1-435, limits assumed).
T1 construct: Cy3/Cy5-labeled on arrays; immobilized on SPR chip or ELISA well, or in solution over immobilized synbody
T1 sequence (looked up): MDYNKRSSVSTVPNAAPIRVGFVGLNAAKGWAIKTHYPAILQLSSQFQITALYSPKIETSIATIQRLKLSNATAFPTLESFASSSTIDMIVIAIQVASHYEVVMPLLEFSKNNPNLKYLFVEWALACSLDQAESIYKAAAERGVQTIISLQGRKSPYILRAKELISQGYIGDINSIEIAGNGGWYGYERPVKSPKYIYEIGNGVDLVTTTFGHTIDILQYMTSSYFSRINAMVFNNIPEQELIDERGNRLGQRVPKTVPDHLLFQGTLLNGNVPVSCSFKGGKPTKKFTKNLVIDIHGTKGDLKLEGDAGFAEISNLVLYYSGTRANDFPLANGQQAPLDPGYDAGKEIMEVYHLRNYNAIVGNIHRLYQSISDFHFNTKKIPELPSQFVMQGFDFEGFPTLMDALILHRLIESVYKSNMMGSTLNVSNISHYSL
The experiment in a line: gel shift assay. A general note: Mobility shift assays separate free from complexed probe on a gel.

Another assay concerns the target T2, α1-antitrypsin.
T2 construct: also called α-antitrypsin; α-antitrypsine
Put plainly: SPR.

Assay [2] deals with T1, Gal80. The experiment in a line: SPR, synbody in solution (1 µM to 7.81 nM) over surface-bound Gal80. (SPR reads the build-up and loss of mass on a sensor chip optically.)
In another assay the target is T3, transferrin (human, UniProt P02787 20-698).
T3 construct: Amine-coupled to SPR chips, tips or beads; Alexa 555-labeled on arrays; also called TRF; pooled human transferrin (Sigma)
T3 sequence (P02787 20-698 limits assumed): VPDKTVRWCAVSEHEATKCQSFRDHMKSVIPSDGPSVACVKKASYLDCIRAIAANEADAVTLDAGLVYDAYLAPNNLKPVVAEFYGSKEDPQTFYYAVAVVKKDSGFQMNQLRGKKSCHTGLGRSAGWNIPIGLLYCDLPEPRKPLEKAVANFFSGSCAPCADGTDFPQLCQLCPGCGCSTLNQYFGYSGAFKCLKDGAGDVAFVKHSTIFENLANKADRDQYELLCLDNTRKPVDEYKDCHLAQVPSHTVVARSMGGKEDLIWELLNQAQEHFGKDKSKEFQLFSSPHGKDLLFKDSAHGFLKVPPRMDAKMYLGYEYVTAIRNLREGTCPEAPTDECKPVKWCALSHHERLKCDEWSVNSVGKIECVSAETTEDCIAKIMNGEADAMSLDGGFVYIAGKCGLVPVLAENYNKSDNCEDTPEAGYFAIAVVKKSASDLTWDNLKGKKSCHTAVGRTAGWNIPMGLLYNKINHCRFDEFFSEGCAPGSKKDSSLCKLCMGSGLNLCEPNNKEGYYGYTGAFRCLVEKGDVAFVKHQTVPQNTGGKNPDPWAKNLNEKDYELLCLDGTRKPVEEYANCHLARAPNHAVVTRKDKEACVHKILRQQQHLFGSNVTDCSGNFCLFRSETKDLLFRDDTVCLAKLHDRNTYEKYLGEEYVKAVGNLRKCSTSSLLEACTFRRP
Put plainly: SPR (Biacore A-100), purified peptide at several concentrations.

T2 sequence (P01009 25-418): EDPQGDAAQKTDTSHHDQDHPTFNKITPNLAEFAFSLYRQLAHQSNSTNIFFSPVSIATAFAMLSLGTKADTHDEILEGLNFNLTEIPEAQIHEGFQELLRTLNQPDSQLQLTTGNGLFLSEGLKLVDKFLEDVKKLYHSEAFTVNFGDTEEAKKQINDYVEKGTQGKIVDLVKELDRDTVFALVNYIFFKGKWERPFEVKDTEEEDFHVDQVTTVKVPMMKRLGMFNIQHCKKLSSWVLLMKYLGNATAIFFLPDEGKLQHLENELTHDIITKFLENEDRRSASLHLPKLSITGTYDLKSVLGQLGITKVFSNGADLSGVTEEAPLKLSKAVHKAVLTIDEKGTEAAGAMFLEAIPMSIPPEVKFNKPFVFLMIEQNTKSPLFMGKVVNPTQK
Source text for transferrin: A Biacore A-100 Surface Plasmon Resonance (SPR) system was used to measure the binding response of each peptide to several different target proteins immobilized on a gold surface. The A-100 has four different flow cells and within each flow cell are five addressable spots. Therefore four different proteins and a negative control reference can be used per flow cell. […] Sensorgrams are collected from each immobilized protein, so a binding profile for each analyte versus each of the protein targets is generated for each injection. Target proteins were immobilized using a biotin capture approach in which a CM5 chip was activated using standard amine coupling chemistry and Neutravidin was covalently coupled to the chip. Each biotinylated protein was injected over a single spot and the amount of protein captured was measured. In this manner four proteins were immobilized per flow cell. In this example, the same four proteins were captured in all four flow cells for this experiment.

B1: BP1/BP2 DNA-linked synbody (linker-optimized: BP1 on the template strand, BP2 at position 13 from the 3' end of the variable strand) (designed binder)
peptide 1: GTEKGTSGWLKTGSC
peptide 2: EGEWTEGKLSLRGSC
modifications: C-terminal Cys joined through SMCC to the amine-modified cytosine at position 13 from the 3' terminus of the DNA variable strand (SEQ ID NO: 15); C-terminal Cys joined through SMCC to the 5' terminal amine-modified cytosine of the DNA template strand (SEQ ID NO: 14)
notes: Two peptides held by a double-stranded DNA linker; also called Gal80 synbody; gal80 synbody
For B1, the Kd (in general, the concentration at which binding is half-saturated) with Gal80 [1] is roughly 100 nM; with Gal80 [2], 91 nM. Also, the “Kd relative to the Kd for gal80” value in the assay with α1-antitrypsin is 1000 fold.

B2: TRF102 (peptide)
peptide: NQYVPIFSQPEDPVQQEGSC
notes: Screened unpurified
With B2, the binding result with transferrin is reported as “no binding”.
